Data reported in patent publication US9605266, “Cell-specific internalizing RNA aptamers against human CCR5 and uses therefore” (CITY OF HOPE).

B1: G-3 aptamer (ssRNA)
RNA: GGGAGGACGAUGCGGGCCUUCGUUUGUUUCGUCCACAGACGACUCGCCCGA
modifications: 2'-F pyrimidines (2'-F-C, 2'-F-U)
B2: G-3-TNPO3 27-mer OVH chimera (mixed)
RNA 1: GGGAGGACGAUGCGGGCCUUCGUUUGUUUCGUCCACAGACGACUCGCCCGAUUCAAAGCCGACAUUGCAGCUCGUGUACC
RNA 2: UACACGAGCUGCAAUGUCGGCUUUG
modifications: 2'-F pyrimidines in sense strand (transcribed)

What was measured:
[1] = molecular target: T1, C-C chemokine receptor type 5 (CCR5) (Homo sapiens, UniProt P51681 P51681:1-352); assay: cell_activity; HIV-1 R5 JR-FL p24 day 3; day 5 58.51 ± 11.22, day 7 17.09 ± 5.90; X4 NL4-3 not converged; conditions: tags: endogenous on in vivo generated human CD4+ T cells
T1 sequence (P51681 whole entry, one chain of several): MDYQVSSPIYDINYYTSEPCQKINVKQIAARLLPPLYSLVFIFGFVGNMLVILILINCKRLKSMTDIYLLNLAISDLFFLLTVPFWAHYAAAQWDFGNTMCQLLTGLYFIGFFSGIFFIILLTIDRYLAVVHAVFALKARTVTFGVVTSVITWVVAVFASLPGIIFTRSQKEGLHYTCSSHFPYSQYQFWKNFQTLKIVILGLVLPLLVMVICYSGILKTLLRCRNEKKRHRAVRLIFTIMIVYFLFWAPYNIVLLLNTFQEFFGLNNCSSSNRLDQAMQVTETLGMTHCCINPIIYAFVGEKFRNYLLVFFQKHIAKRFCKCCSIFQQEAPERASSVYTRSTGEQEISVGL

[2] = molecular target: T1, C-C chemokine receptor type 5 (CCR5); assay: cell_activity; HIV-1 R5 JR-FL p24 day 3; day 5 232.6 ± 38.3, day 7 170.4 ± 47.0; X4 strains IIIB and NL4-3 not inhibited; conditions: tags: endogenous on primary PBMC-CD4+ cells
Procedure: (§1) PBMCs were freshly isolated from healthy donors and CD8 cells were depleted as described above. After culture for 3 days in the activated T-cell culture medium containing interleukin-2, the cell-surface CCR5 level of PBMCs was detected by flow cytometry as described previously. HIV-1 protection assay was performed in 24-well tissue culture plates. Duplicate night-point dilution series of experimental RNAs were prepared and refolded in refolding buffer. PBMCs were washed once with pre-warmed PBS, and 4×10^5 PBMCs were seeded to each well of assay plates. Subsequently, experimental RNAs with different concentrations were added. Plates were incubated for 4-6 hours at 37° C. in a humidified 5% CO_2 incubator. Various viruses (R5 strains: JR-FL, Bal, MOI=0.01; or X4 strains: IIIB, NL4-3, MOI=0.001) were added into each well. After 24 hours incubation, the cells were gently washed with pre-warmed PBS to eliminate free viruses and were incubated sequentially at 37° C. in a humidified 5% CO_2 incubator.
(§2) The $IC50$ value of G-3 aptamer was indicated here. G-3 aptamers with different concentrations were incubated with primary PBMCs. After 4-6 hours incubation, various viruses (R5 strains: JR-FL, Bal; or X4 strains: IIIB, NL4-3) were added into each well. The culture supernatants were collected at different time points after infection for HIV-1 p24 antigen ELISA assay. […]

[3] = molecular target: T1, C-C chemokine receptor type 5 (CCR5); assay: cell_activity; HIV-1 R5 BaL p24 day 3; day 5 354.3 ± 113.3, day 7 >1000; conditions: tags: endogenous on primary PBMC-CD4+ cells
Procedure: as §1, §2

[4] = molecular target: T1, C-C chemokine receptor type 5 (CCR5); assay: flow; apparent Kd, live cells, RT 30 min, DPBS with 1 mM Ca2+/1 mM Mg2+ and tRNA; R2 0.95; reduced by CCR5 siRNA knockdown; no binding to CCR5-negative U373-Magi; conditions: tags: U373-Magi-CCR5E cells
Procedure: Adherent cell lines (U373-Magi cells and U373-Magi-CCR5E cells) were washed with pre-warmed PBS and detached with Cell stripper. Suspension cell lines (CEM-NKr cells, CEM-NKr-CCR5 cells, and PBMCs) were washed twice with pre-warmed PBS. After counting the cells' number, the desired number of cells was resuspended in 100 µL binding buffer containing Cy3-labeled experimental RNA aptamers at different concentrations as shown. After incubation at room temperature for 30 min, cells were washed three times with 500 µL of pre-warmed binding buffer, and finally resuspended in 350 µL of DPBS for flow cytometry analysis (Flow cytometry core, City of Hope, CA). The dissociation constants were calculated using nonliner curve regression with a Graph Pad Prism 6.0.

[5] = molecular target: T1, C-C chemokine receptor type 5 (CCR5); assay: cell_activity; HIV-1 R5 BaL p24 day 3; day 5 245.5 ± 35.76, day 7 243.2 ± 46.16; conditions: tags: endogenous on in vivo generated human CD4+ T cells
[6] = molecular target: T1, C-C chemokine receptor type 5 (CCR5); assay: cell_activity; HIV-1 R5 JR-FL p24 day 3; day 5 142.6 ± 41.3, day 7 79.3 ± 21.6; siRNA also contributes; conditions: tags: endogenous on primary PBMC-CD4+ cells; label: Cy3 on aptamer-sense strand, Cy5 on antisense strand; aptamer with UU linker and siRNA duplex, 2-nt 3' overhang

Binder	IC50 [1] [nM]	IC50 [2] [nM]	IC50 [3] [nM]	Kd [4] [nM]	IC50 [5] [nM]	IC50 [6] [nM]
B1	48	220	349	111	148	
B2						23.2
